Reference: patent publication US20060183119A1, “Method for determining predisposition to a physiological reaction in a patient” (UNIVERSITE LAVAL, priority 2002, published 2006)
Blank lines part the entries; values can stand above or below the molecule they belong to.

Columns and labels:
[1] = tested on: COc1c(C)c2c(c(O)c1C/C=C(\C)CCC(=O)O)C(=O)OC2; assay: cells, lysate or membranes named; settings: other: MPA glucuronidation; pH 7.3; 37.0 °C
human UGT1A9*3 = biological target: T1, human UGT1A9*3 (Homo sapiens, UniProt O60656, M33T); assay: Glucuronidation by microsomes of HEK-293 cells stably expressing UGT1A9*3
T1 sequence (O60656 26-530 M33T): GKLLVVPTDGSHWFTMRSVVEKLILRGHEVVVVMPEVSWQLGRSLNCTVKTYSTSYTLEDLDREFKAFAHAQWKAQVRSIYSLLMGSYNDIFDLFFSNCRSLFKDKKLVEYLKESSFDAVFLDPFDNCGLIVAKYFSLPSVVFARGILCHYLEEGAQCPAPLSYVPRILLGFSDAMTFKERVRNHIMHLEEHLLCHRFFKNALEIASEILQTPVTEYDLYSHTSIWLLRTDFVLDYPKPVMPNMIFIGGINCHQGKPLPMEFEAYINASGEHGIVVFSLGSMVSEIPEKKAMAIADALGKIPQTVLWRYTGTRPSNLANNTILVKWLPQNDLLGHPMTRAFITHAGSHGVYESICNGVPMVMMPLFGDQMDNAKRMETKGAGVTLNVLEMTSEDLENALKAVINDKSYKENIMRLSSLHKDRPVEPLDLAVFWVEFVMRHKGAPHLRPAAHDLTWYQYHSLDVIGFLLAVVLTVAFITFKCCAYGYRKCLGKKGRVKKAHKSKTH
Method: (§1) Microsomal fractions from HEK-293 cells stably expressing human UGT1A9*1, UGT1A9*2 and UGT1A9*3 were used in enzymatic assays. Reactions (100 μl volume) contained 50 mM Tris-HCl, pH 7.3, 10 mM MgCl2, 100 μg/mL phosphatidylcholine, 1 mM UDP-glucuronic acid, 40 to 60 μg of membrane protein. […] Human liver microsome were incubated in the same condition for control. Reaction was stopped by the addition of 200 μL MeOH+1% HCl 2N, followed by centrifugation at 14000 rpm for 10 minutes. Supernatant was filtered through a 0.22 μm filter and 100 μL of water was added. For SN-38 and SN-38-glucuronide detection, 10 μL samples were injected on a liquid chromatographic system coupled to a fluorescence detector. Time-course experiments were realized to determine the linearity of the glucuronidation reaction.
(§2) A liquid chromatographic method was developed to quantify SN-38 glucuronidation of UGT cell line-derived microsomes and human liver microsomes. Samples were analyzed using high performance liquid chromatography (Alliance 2695, Waters, Milford, Mass.). […] At a constant flow rate (0.7 ml/min), a linear gradient from 20 to 65% B was run over 3 min, held 0.8 min and a second gradient until 95% of B was run over 2 min and then re-equilibrated to 20% B over 2 min. The effluent from the HPLC system (Alliance 2695) was connected directly to a fluorescence detector (Waters, Milford, Mass.) using an excitation wavelength of […] and an emission of 460 nm. […] Determination of the glucuronidation rates obtained with other substrates was performed as currently known in the art.
(§3) Microsomal fractions from HEK293 (40 to 60 μg) were added to a reaction mixture (100 μL) containing 50 mM Tris-HCl, pH 7.3, 10 mM MgCl2, 100 μg/mL phosphatidylcholine and 2 mM UDP-glucuronic acid. […] Commercially available human liver microsomes (Human Cell Culture Center Inc., Laurel, Md.) were incubated in the same conditions for all experiments. Time-course experiments were performed to determine the linearity of the glucuronidation reaction. For the determination of Vmax and Km. HEK293 cells stably expressing UGT1A9 enzymes were incubated in the presence of various concentrations of SN-38 ranging from 0.1 to 200 μM and incubated for 30 min as described above whereas UGT1A7 membranes preparations were incubated for 3 hours. […] Reactions with SN-38 were stopped by the addition of 200 μL MeOH+1% HCl 2N, followed by centrifugation at 14000×g for 10 minutes. The supernatants were filtered through a 0.22 μm membrane and 100 μL of water was added to the filtrate. For the detection of SN-38 and its glucuronide (SN-38G), 10 μL samples were injected in a liquid chromatographic system (HPLC) coupled to fluorescence detector as described below.
(§4) A HPLC method was developed to quantify the rates of SN-38 glucuronidation from the various microsomal fractions under study. The HPLC system used was an Alliance 2695 (Waters, Milford, Mass.) equipped with a 50×3.2 mm Colombus C18 column (Phenomenex, Torrance, Calif.). […] Then a second gradient ranging from 65% to 95% solvent B was generated during the following 2 min. Finally, the column was re-equilibrated to 20% solvent B for 2 min. The column was connected to a fluorescence detector model 474 (Waters, Milford, Mass.) and the molecules were excited at a wavelength of 370 nm and an emission of 425 nm.

human UGT1A9*2 = biological target: T2, human UGT1A9*2 (Homo sapiens, UniProt O60656, C3Y); assay: Glucuronidation by microsomes of HEK-293 cells stably expressing UGT1A9*2; settings: 5 μM and 200 μM of flavopiridol
T2 sequence (O60656 26-530): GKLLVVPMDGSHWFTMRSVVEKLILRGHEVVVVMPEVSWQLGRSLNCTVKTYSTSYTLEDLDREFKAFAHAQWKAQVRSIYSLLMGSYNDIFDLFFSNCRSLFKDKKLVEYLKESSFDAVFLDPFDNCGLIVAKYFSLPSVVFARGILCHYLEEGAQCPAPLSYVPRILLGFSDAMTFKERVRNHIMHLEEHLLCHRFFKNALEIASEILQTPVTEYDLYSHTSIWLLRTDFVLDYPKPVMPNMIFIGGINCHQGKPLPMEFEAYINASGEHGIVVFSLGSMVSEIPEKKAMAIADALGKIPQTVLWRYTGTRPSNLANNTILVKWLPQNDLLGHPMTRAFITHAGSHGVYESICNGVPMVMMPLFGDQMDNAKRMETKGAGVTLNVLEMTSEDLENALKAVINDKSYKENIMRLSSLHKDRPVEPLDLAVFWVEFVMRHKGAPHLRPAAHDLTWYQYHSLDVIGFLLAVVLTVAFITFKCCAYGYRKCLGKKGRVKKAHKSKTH
Method: as §1, §2, §3, §4

[2] = substrate: COc1c(C)c2c(c(O)c1C/C=C(\C)CCC(=O)O)C(=O)OC2; assay: cells, lysate or membranes named; settings: other: MPA glucuronidation; pH 7.3; 37.0 °C; remark: listed apart in the source

Molecule: human UGT1A9*2 (Homo sapiens; C3Y)
Km [1]: 303 µM
Vmax [1]: 0.0084 µmol/min/mg

formation of flavopiridol-G compared to the UGT1A9*1 allele (human UGT1A9*3; 5 μM and 200 μM of flavopiridol): not statistically different
formation of flavopiridol-G compared to the UGT1A9*1 allele (human UGT1A9*2): not statistically different
Molecule: CN1CC[C@H](c2c(O)cc(O)c3c(=O)cc(-c4ccccc4Cl)oc23)[C@H](O)C1 [Flavopiridol, flavopiridol]

effect of codon 33 variation on affinity of the protein for the substrate (in words) (human UGT1A9*3; versus UGT1A9*1): dramatically reduced
Molecule: COc1c(C)c2c(c(O)c1C/C=C(\C)CCC(=O)O)C(=O)OC2 [MPA, mycophenolic acid]

B1: human UGT1A9*1 (Homo sapiens) (protein)
chain: GKLLVVPMDGSHWFTMRSVVEKLILRGHEVVVVMPEVSWQLGRSLNCTVKTYSTSYTLEDLDREFKAFAHAQWKAQVRSIYSLLMGSYNDIFDLFFSNCRSLFKDKKLVEYLKESSFDAVFLDPFDNCGLIVAKYFSLPSVVFARGILCHYLEEGAQCPAPLSYVPRILLGFSDAMTFKERVRNHIMHLEEHLLCHRFFKNALEIASEILQTPVTEYDLYSHTSIWLLRTDFVLDYPKPVMPNMIFIGGINCHQGKPLPMEFEAYINASGEHGIVVFSLGSMVSEIPEKKAMAIADALGKIPQTVLWRYTGTRPSNLANNTILVKWLPQNDLLGHPMTRAFITHAGSHGVYESICNGVPMVMMPLFGDQMDNAKRMETKGAGVTLNVLEMTSEDLENALKAVINDKSYKENIMRLSSLHKDRPVEPLDLAVFWVEFVMRHKGAPHLRPAAHDLTWYQYHSLDVIGFLLAVVLTVAFITFKCCAYGYRKCLGKKGRVKKAHKSKTH
Km [2]: 495 µM
Vmax [2]: 0.00941 µmol/min/mg

B2: human UGT1A9*3 (Homo sapiens; M33T) (protein)
chain: GKLLVVPTDGSHWFTMRSVVEKLILRGHEVVVVMPEVSWQLGRSLNCTVKTYSTSYTLEDLDREFKAFAHAQWKAQVRSIYSLLMGSYNDIFDLFFSNCRSLFKDKKLVEYLKESSFDAVFLDPFDNCGLIVAKYFSLPSVVFARGILCHYLEEGAQCPAPLSYVPRILLGFSDAMTFKERVRNHIMHLEEHLLCHRFFKNALEIASEILQTPVTEYDLYSHTSIWLLRTDFVLDYPKPVMPNMIFIGGINCHQGKPLPMEFEAYINASGEHGIVVFSLGSMVSEIPEKKAMAIADALGKIPQTVLWRYTGTRPSNLANNTILVKWLPQNDLLGHPMTRAFITHAGSHGVYESICNGVPMVMMPLFGDQMDNAKRMETKGAGVTLNVLEMTSEDLENALKAVINDKSYKENIMRLSSLHKDRPVEPLDLAVFWVEFVMRHKGAPHLRPAAHDLTWYQYHSLDVIGFLLAVVLTVAFITFKCCAYGYRKCLGKKGRVKKAHKSKTH
Km [2]: 3225 µM
Vmax [2]: 0.0141 µmol/min/mg
